From patent US20100150924A1 (published 2010)

T1: endogenous gliomedin on cultured rat Schwann cells (rat, UniProt Q80WL1 1-549)
T1 construct: whole, on cells; also called Gldn
T1 sequence (looked up): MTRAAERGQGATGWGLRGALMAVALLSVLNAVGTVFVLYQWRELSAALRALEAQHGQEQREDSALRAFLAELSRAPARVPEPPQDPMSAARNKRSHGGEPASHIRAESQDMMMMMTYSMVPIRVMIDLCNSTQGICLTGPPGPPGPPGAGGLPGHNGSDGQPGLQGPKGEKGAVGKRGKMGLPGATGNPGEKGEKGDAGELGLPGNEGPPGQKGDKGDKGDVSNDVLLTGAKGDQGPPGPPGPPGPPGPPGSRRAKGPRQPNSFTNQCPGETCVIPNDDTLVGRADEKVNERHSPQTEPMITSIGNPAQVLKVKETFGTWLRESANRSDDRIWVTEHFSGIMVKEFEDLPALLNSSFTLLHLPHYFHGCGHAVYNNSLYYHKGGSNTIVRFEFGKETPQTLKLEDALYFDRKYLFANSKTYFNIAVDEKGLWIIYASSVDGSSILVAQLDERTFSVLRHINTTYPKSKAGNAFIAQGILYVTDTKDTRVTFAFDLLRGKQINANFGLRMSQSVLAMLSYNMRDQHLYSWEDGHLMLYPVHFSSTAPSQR

T2: endogenous neurofascin on cultured DRG neurons (rat, UniProt P97685 25-1240)
T2 construct: whole, on cells
T2 sequence (looked up): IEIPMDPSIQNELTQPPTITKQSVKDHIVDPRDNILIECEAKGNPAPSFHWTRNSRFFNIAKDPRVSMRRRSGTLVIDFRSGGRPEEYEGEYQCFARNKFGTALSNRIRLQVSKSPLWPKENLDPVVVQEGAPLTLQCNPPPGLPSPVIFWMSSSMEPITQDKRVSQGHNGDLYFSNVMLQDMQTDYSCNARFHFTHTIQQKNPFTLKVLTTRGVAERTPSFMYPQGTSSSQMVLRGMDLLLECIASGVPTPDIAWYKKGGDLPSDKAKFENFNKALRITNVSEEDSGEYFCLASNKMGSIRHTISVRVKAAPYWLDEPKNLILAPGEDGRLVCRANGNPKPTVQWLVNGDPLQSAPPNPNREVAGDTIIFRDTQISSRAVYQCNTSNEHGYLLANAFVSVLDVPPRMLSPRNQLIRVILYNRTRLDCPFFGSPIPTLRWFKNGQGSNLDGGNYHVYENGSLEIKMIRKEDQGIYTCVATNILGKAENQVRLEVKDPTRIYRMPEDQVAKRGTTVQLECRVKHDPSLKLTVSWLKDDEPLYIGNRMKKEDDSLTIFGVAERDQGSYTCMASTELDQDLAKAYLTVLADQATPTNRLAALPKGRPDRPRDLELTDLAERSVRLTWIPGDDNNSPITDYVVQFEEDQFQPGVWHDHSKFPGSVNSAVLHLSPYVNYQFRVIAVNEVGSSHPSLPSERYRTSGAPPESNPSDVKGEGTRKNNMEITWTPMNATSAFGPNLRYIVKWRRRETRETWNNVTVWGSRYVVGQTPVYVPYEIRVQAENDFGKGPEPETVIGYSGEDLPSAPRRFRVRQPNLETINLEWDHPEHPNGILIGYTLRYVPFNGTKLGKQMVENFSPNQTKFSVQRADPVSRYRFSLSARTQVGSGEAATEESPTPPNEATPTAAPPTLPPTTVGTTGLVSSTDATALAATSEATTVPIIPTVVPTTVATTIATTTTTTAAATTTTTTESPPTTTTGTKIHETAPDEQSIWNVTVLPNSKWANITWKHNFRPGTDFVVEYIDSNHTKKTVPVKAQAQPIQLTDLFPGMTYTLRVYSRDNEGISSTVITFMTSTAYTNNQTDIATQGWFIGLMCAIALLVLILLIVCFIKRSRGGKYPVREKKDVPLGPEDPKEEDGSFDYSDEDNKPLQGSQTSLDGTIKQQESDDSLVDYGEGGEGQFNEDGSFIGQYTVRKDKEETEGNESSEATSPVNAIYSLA


Columns and labels:
[1] = molecular target: T1, endogenous gliomedin on cultured rat …; experiment: co-clustering on rat Schwann cells after aggregation of Necl1-Fc with a secondary antibody to human Fc
Method: (§1) Binding experiments were done by incubating the cells with medium containing different the Fc-fusions proteins pre-incubated with anti human Fc-Cy3 as described previously (Eshed et al., 2005). For clustering experiments, purified DRG-neurons or isolated Schwann cells were incubated with medium containing the respective Fc-fusion protein as described above, washed once and grown for additional 24 (DRG) or 4 hours (Schwann) before fixing. Fc-perturbation experiments were preformed by adding […] purified proteins to the medium of dissociated DRG cultures 2 days before the induction of myelination. Fresh medium containing the Fc-fusion proteins was replaced every second day and the cultures were fixed and stained after 11-12 days of myelination.
To further determine whether Necl4 is the Schwann cell receptor for axonal Necls, we examined the ability of Necl1-Fc and Necl3-Fc to bind Schwann cells that were transfected with Necl4-specific siRNAs to block its expression (FIG. 10B). In contrast to Schwann cells transfected with a control siRNA, down-regulation of Necl4 in Schwann cells by siRNA abolished the binding of Necl1-Fc and Necl3-Fc. […] In a reciprocal set of experiments, reduction of Necl1 expression in DRG neurons by transfection of siRNA abolished the binding of Necl4-Fc (FIG. 11).

[2] = molecular target: T2, endogenous neurofascin on cultured DRG …; experiment: co-clustering on DRG neurons after aggregation of Necl4-Fc
Method: as §1

Binder	binding result [1]	binding result [2]
Necl1-Fc (extracellular domain of Necl1 fused to the constant region of human IgG1) (Fc fusion, Produced in HEK 293T cells; also called soluble Necl1; Nel1-Fc; not shown: constant region (Fc) of human IgG1) NLSQDGYWQEQDLELGTPAPLEEALSSTVWSNPDLLASQDSQPWTSDETVVAGGTVVLKCQVKDHEDSSLQWSNPAQQTLYFGEKRALRDNRIQLVSSTPHELSISISNVALADEGEYTCSIFTMPVRTAKSLVTVLGIPQKPIITGYKSSLREKETATLNCQSSGSKPAAQLAWRKGDQELHGDQTRIQEDPNGKTFTVSSSVSFQVTRDDDGANVVCSVNHESLKGADRSTSQRIEVLYTPTAMIRPEPAHPREGQKLLLHCEGRGNPVPQQYVWVKEGSEPPLKMTQESALIFPFLNKSDSGTYGCTATSNMGSYTAYFTLNVNDPSPVPSSSST	no binding	
Necl4-Fc (extracellular domain of Necl4 fused to the constant region of human IgG1) (Fc fusion, also called soluble Necl-4; soluble Necl4; not shown: constant region (Fc) of human IgG1) QEVQTENVTVAEGGVAEITCRLHQYDGSIVVIQNPARQTLFFNGTRALKDERFQLEEFSPRRVRIRLSDARLEDEGGYFCQLYTEDTHHQIATLTVLVAPENPVVEVREQAVEGGEVELSCLVPRSRPAAVLRWYRDRKELKGVSSGQENGKVWSVASTVRFRVDRKDDGGIVICEAQNQALPSGHSKQTQYVLDVQYSPTARIHASQAVVREGDTLVLTCAVTGNPRPNQIRWNRGNESLPERAEAVGETLTLPGLVSADNGTYTCEAANKHGHARALYVLVVYDPGAVVEAQTSVPY		no binding
